Test results: the supplement of paper PMC10567573

B1: FEM1A (parent)
chain: NIVEYLIQEQPGQEQVAGGEAQPG
B2: HMOX1 (parent)
chain: YHIYVALEEEIERNKESPVFAPVY

Variants of: B1
Test: protein stability index of a GFP-peptide fusion (GPS, HEK-293T) (PSI 1-6); higher = more stable
Conditions: c terminus: a fixed tail appended
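Note: lentivirally expressed fusions sorted by FACS into six bins by GFP to DsRed ratio, PSI derived from sequencing read proportions per bin multiplied by bin number.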

Protein stability index, by site and new letter:
G18: M 4.31; D 5.01; R 4.15; L 3.54; H 4.47; E 4.9; F 2.94; W 3.12; N 4.16
G19: N 4.43; K 4.22; M 3.72; D 4.75; H 4.04; Y 3.47; V 3.96; F 3.31; P 4.16; S 4.65; A 4.24; Q 4.09; R 3.66
E4: P 4.76; Q 3.95; M 2; N 4.22; K 4.11; V 1.82; C 3.11; L 1.92; Y 2.31; I 1.86; H 3.56; F 2.4; D 4.79
V16: Q 4.3; L 3.94; P 4.29; S 3.86; K 4.29; H 4.36; F 3.03; D 4.16; I 3.86; Y 4.05; W 3.81; M 4.68
A21: D 4.53; W 3.03; T 4.67; E 4.76; K 4.28; I 3.91; Q 4.05; L 3.95; F 4.41; S 3.83; Y 4.03; N 4.7; P 4.27; M 4.16; G 3.86; H 3.77; V 4.15
V3: L 3.07; H 5.06; S 5.49; M 4.2; T 4.81; P 5.74; W 3.67; Q 4.57; D 5.67; A 5.13; R 5.21; E 5.36; Y 4.33
Y5: Q 5.08; D 5.67; I 3.98; E 5.66; H 4.93; A 5.18; N 4.83; P 5.82; G 5.7; F 3.56; R 4.54; V 4.49; C 4.74
Q22: E 4.82; R 3.94; S 4.53; C 4.58; Y 2.78; H 3.94; D 4.56; G 4.33; V 4.35; A 4.1; K 4.08
G12: C 4.03; A 3.83; P 4.87; D 4.69; R 2.94; L 3.44; N 4.5; E 4.73; W 2.89; V 3.95; K 4.19; H 4.24
P23: A 4.93; S 4.46; D 4.66; Q 3.7; R 3.66; M 4.33; Y 3.59; T 4.14; I 3.94; H 3.98; C 3.98; F 3.66; K 4.29
I7: P 5.71; D 5.39; G 4.55; A 5.14; F 4.14; L 3.69; V 4.43; T 4.65; W 3.95; M 4.25; E 5.3; C 4.78
Q10: C 3.83; M 3.21; E 4.62; I 3.75; P 4.54; R 4.03; L 3.43; W 2; N 4.27; K 4.3; S 4.53; Y 3.09
L6: Y 5.11; M 4.5; K 5.42; R 5.16; S 5.45; F 4.71; N 5.71; I 4.63; G 5.51; E 5.82; A 5.36; T 5.59; P 5.7
P11: D 4.47; R 3.42; F 2.75; W 2.13; N 3.8; C 3.11; H 3.6; S 3.96; T 3.88; V 3.28; M 2.6
N1: Y 2.52; C 2.79; S 3.7; M 2.16; Q 3.89; R 3.19; K 3.36; A 2.91; I 3.26; H 3.76; L 1.85; W 2.71; T 2.92; E 3.85; P 5.17
E20: N 3.73; S 3.41; A 3.89; T 3.63; P 3.79; C 3.68; W 2.62; G 4.38; F 3.46; V 3.49; M 3.13; Y 2.34; K 4.25
Q13: K 4.48; S 3.85; L 3.27; R 3.79; I 3.35; M 3.86; E 4.79; P 4.26; W 3.18; D 4.11; T 3.94; N 4.42; V 4.06; Y 3.72
I2: P 5.54; K 5.27; T 5.57; M 4.15; A 5.21; C 5.17; S 5.54; F 4.24; G 5.39
Q8: C 3.36; F 2.94; S 4.09; H 3.93; M 3.66; R 3.11; D 4.89; T 4.88; W 3.33; P 4.71; G 4.26; A 4.46
E9: T 3.15; Y 2.42; R 2.88; L 2.27; D 4.49; W 2.45; I 2.3; N 3.38; F 2.79; Q 3.52; P 3.71; H 2.95; K 3.71
A17: L 3.33; M 3.96; F 3.59; W 2.73; E 4.6; C 3.37; N 5.16; I 3.87; R 3.5; G 4.71; K 4.19; H 4.38; P 4.24; Q 4.07
G24: Y 3.51; A 3.67; I 4.03; V 3.29; L 4.05; C 4.17; R 3.98; T 4.17; D 4.62; N 4.29; P 4.12; F 3.76; E 4.03; H 4.28
Q15: H 4.02; W 3.22; I 4.08; G 4.78; L 3.53; K 3.91; M 3.78; E 4.79; T 3.17; D 4.08; V 3.66; Y 3.67
E14: Q 3.33; P 3.73; T 4.21; D 4.39; H 3.48; A 4.06; Y 2.69; V 2.61; K 3.85; C 3.38; S 3.21; R 3.37; W 2.25; F 2.62; N 3.54; L 3.06; G 3.84

Variants of: B2
Test: as above
Conditions: c terminus: a fixed tail appended

Protein stability index: each site, then its substitutions
H2: F 2.25; G 2.57; A 2.34; K 2.61; C 1.73; I 1.51; D 3.19; E 3.12
Y1: M 2.35; F 2.03; K 2.57; E 4.37; S 2.81; D 4.59; C 1.89; V 1.67; Q 2.78; I 3.18; H 2.5; W 2.59; T 3.71; N 3.93; A 2.6; G 2.26; L 1.64; R 2.73; P 2.46
